Measurements: patent US20170137467A1 (CHROMOTEK, published 2017)
Substitutions are numbered along the chain they refer to. Numbers in names are those of the source. Ends that are not written are not given here. * marks the point of attachment. Biotin = O=C1N[C@H]2[C@H](CS[C@H]2CCCCC(=O)*)N1; ethylene glycol linker = not defined here

Assays:
[1] = biological target: T1, GFP with a C-terminal BC2 tag (GFPBC2T) (human, UniProt P42212 1-238 = GFP); assay: binding studies with GFPBC2T
T1 construct: Expressed in E. coli; also called C-terminally BC2-tagged GFP

[2] = biological target: T2, pTag1 peptide (biotinylated) (reading uncertain); assay: BLI, biotinylated peptide on streptavidin biosensor, BC2-Nb in solution, 1:1 model
T2 construct: Immobilised on streptavidin biosensors
T2 peptide: {Biotin-ethylene glycol linker}-PDRVRAVSHWSS
Description: (§1) Biolayer interferometry (BLI)-based affinity measurements were used to assess two improved variations of the original BC2T sequence (a: […], pTag1 SEQ ID NO:33; b: […], pTag2 SEQ ID NO:34) in comparison with the original BC2T sequence (c: BC2T SEQ ID NO:4).
(§2) The shaking rate was 1200 rpm. As a reference, each peptide was also incubated with BLItz buffer only according to the protocol above. […] The sensor was regenerated by sequential dips into 10 mM glycine pH 2.0 and BLItz buffer (repeated three times). Raw data were analysed using the software BLItz Pro (fortéBio) and a 1:1 binding model.

[3] = biological target: T3, pTag2 peptide (biotinylated) (reading uncertain); assay: as above
T3 construct: Immobilised on streptavidin biosensors
T3 peptide: {Biotin-ethylene glycol linker}-ADRVRAVSHWSS
Description: as §1, §2

[4] = biological target: T4, BC2T peptide (biotinylated) (human, reading uncertain); assay: as above
T4 construct: Immobilised on streptavidin biosensors; also called original BC2T; wildtype BC2T
T4 peptide: {Biotin-ethylene glycol linker}-PDRKAAVSHWQQ
Description: as §1, §2

[5] = biological target: T5, eGFP-PCNA with C-terminal BC2 tag (eGFP-PCNABC2T) (human, UniProt P12004 1-261); assay: immunocytochemistry on fixed HeLa cells expressing GFP-PCNABC2T
T5 construct: Expressed in HEK293T or HeLa cells; not shown: eGFP
T5 sequence (P12004 other isoform, or with tags, fused parts or gaps limits assumed): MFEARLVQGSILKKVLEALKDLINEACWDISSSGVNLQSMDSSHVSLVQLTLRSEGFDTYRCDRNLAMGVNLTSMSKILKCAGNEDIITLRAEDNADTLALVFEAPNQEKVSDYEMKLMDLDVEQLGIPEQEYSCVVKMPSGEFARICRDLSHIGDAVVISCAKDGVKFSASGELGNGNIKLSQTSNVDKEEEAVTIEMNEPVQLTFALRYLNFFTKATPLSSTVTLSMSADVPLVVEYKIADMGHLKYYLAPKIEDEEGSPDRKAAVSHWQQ
Description: After 24 h, cells were washed once with PBS and fixed with 4% w/v paraformaldehyde (PFA) in PBS for 15 min at RT or with methanol for 15 min at −20° C. After removal of the fixative and washing twice with PBS, cells were blocked and permeabilized with 3% w/v BSA and 0.1% v/v Triton X-100 in PBS for 1 h at RT. […] Unbound nanobody and DAPI were removed by washing 3 times with a mixture of PBS and 6% v/v 5 M NaCl in H₂O. Images of FIG. 4 b and FIG. 10 b were acquired with an Image Xpress micro XL system. Confocal images of FIG. 10 a were acquired with an ImageXpress Micro Confocal.

[6] = biological target: T6, mCherry-Vimentin with C-terminal BC2 tag (mCherry-VIMBC2T) (human, UniProt P08670 1-466); assay: Western blot probed with BC2-NbAF488
T6 construct: Expressed in HEK293T or HeLa cells; also called mCherry-VimentinBC2T; not shown: mCherry fluorescent protein
T6 sequence (P08670 other isoform, or with tags, fused parts or gaps): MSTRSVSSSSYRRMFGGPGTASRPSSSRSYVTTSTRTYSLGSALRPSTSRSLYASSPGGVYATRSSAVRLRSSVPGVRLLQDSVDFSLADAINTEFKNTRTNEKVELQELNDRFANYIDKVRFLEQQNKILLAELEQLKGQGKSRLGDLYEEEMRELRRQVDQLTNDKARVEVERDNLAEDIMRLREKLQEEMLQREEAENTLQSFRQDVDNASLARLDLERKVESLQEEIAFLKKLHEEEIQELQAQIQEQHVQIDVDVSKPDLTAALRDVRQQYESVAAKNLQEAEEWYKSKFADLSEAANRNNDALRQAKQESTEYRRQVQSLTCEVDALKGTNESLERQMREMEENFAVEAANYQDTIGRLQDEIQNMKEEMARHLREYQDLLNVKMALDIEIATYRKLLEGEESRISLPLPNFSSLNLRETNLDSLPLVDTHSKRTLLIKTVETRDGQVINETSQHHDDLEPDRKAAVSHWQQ

[7] = biological target: T5, eGFP-PCNA with C-terminal BC2 tag …; assay: Western blot probed with BC2-NbAF488
[8] = biological target: T7, mCherry-Vimentin (untagged) (UniProt P08670 1-466); assay: Western blot probed with BC2-NbAF488
T7 construct: Control without the BC2 tag; not shown: mCherry fluorescent protein
T7 sequence (P08670 whole entry): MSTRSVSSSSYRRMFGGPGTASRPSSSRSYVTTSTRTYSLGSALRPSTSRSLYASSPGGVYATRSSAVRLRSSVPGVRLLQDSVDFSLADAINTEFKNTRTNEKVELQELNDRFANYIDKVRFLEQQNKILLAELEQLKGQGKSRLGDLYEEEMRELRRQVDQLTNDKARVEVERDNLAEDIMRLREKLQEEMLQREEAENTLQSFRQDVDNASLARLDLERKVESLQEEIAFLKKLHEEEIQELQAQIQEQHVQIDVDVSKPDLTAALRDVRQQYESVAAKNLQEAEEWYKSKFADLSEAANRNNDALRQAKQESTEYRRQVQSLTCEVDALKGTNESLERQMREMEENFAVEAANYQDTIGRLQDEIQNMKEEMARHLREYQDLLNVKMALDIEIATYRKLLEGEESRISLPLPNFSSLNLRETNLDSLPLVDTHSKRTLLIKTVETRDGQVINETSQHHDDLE

[9] = biological target: T8, BC2T Q12D library peptide (human); assay: peptide library pulldown on immobilized Nb, LC-MS of supernatant; ratio vs GFP-Nb control (1 = not captured, 0 = captured)
T8 peptide: Ac-PDRKAAVSHWQD-NH2
Excerpt: (§3) In total, 12 different BC2T libraries displaying all 20 proteinogenic amino acids in one single position of the peptide were used in immunoprecipitation experiments. […] The direct comparison with the GFP-Nb made it possible to determine the quantitative degree of peptide capture without the need of labeled standards. […] The more peptide was captured the more the value approximates 0. It was not possible to discriminate between isoleucine (I) and leucine (L) peptide versions since these peptides are isobaric.
(§4) To investigate the binding specificity of the BC2T and derived mutants peptide libraries for each amino acid position of the sequence […] (SEQ ID NO:4) were synthesized with acetyl and amide groups located at the N-termini or C-termini respectively (Intavis). […] Incubations were performed in 300 μl PBS/0.01% CHAPS for 1 h on a HulaMixer (Life Technologies). Subsequent to a centrifugation step 10 μl supernatant were analyzed in a LC-MS procedure. Peptides were separated using an UltiMate3000 RSLCnano System (Thermo Scientific), composed of a C18 PepMap100μ-Precolumn (300 μm×5 mm; particle size: 5 μm; pore size: 100 Å—Thermo Scientific) and a C18 analytical column (Acclaim Rapid Separation LC (RSLC) Column: 150 mm×5 mm; particle size: 2.2 μm; pore size: 100 Å—Thermo Scientific). A step gradient was applied starting at 8% and ending after 20 min at 30% eluent B (80% acetonitrile, 20% H₂O, 0.1% formic acid).

[10] = biological target: T9, BC2T Q12E library peptide (human); assay: as above
T9 peptide: Ac-PDRKAAVSHWQE-NH2
Excerpt: as §3, §4

BC2T S8D library peptide = biological target: T10, BC2T S8D library peptide (human); assay: as above
T10 construct: also called BC2TS8X: D
T10 peptide: Ac-PDRKAAVDHWQQ-NH2
Excerpt: as §3, §4

BC2T S8E library peptide = biological target: T11, BC2T S8E library peptide (human); assay: as above
T11 construct: also called BC2TS8X: E
T11 peptide: Ac-PDRKAAVEHWQQ-NH2
Excerpt: as §3, §4

BC2T H9D library peptide = biological target: T12, BC2T H9D library peptide (human); assay: as above
T12 peptide: Ac-PDRKAAVSDWQQ-NH2
Excerpt: as §3, §4

BC2T H9E library peptide = biological target: T13, BC2T H9E library peptide (human); assay: as above
T13 peptide: Ac-PDRKAAVSEWQQ-NH2
Excerpt: as §3, §4

[11] = biological target: T14, BC2T W10D library peptide (human); assay: as above
T14 construct: also called BC2TW10X: D
T14 peptide: Ac-PDRKAAVSHDQQ-NH2
Excerpt: as §3, §4

[12] = biological target: T15, BC2T W10E library peptide (human); assay: as above
T15 construct: also called BC2TW10X: E
T15 peptide: Ac-PDRKAAVSHEQQ-NH2
Excerpt: as §3, §4

[13] = biological target: T16, BC2T Q11D library peptide (human); assay: as above
T16 peptide: Ac-PDRKAAVSHWDQ-NH2
Excerpt: as §3, §4

[14] = biological target: T17, BC2T Q11E library peptide (human); assay: as above
T17 peptide: Ac-PDRKAAVSHWEQ-NH2
Excerpt: as §3, §4

B1: BC2-NbC50A_C102S (VHH)
VHH: QVQLVESGGGLVQPGGSLTLSCTASGFTLDHYDIGWFRQAPGKEREGVSAINNSDDDTYYADSVKGRFTIFMDNAKDTVYLQMNSLKPEDTAIYYCAEARGSKRGRYEYDFWGQGTQVTVSS
notes: Mutant without the additional disulfide bond between CDR3 and FR2
B1: no binding [1].

B2: BC2 nanobody (BC2-Nb) (VHH)
VHH: B1 VHH with A50C, S102C
notes: Alpaca VHH, 122 aa; in solution at 5-50 nM in the BLI assay
Binder B2 has a Kd [2] of 0.7 nM, a koff [2] of 6.8e-05 s⁻¹ and a kon [2] of 92000 M⁻¹ s⁻¹. The Kd [3] was 1.9 nM, the koff [3] was 0.0002 s⁻¹ and the kon [3] was 110000 M⁻¹ s⁻¹. The Kd [4] was 2.6 nM, the koff [4] was 0.0005 s⁻¹ and the kon [4] was 190000 M⁻¹ s⁻¹.

B3: BC2-NbATTO647 (VHH)
VHH: B1 VHH with A50C, S102C
modifications: Atto647 coupled chemically with the NHS-activated dye (sites not given)
notes: also called fluorescently labeled BC2-Nb (ATTO647); not shown: C-terminal 6xHis-tag added by the pHEN6 vector
B3: binds [5].

B4: BC2-NbAF488 (VHH)
VHH: B1 VHH with A50C, S102C
modifications: AlexaFluor488 coupled chemically with the NHS-activated dye (sites not given)
notes: also called BC2-Nb488; fluorescently labeled BC2-Nb (AlexaFluor488); not shown: C-terminal 6xHis-tag added by the pHEN6 vector
B4: binds [6]; binds [7]; no binding [8].

B5: BC2-Nb(R106S) (VHH)
VHH: B1 VHH with A50C, S102C, R106S
notes: Headlock mutant; immobilized on beads in the library pulldown
Work on B5 yielded a ratio [9] of 0.9, a ratio [10] of 0.7 and a ratio (BC2T S8D library peptide) of 0.9. It also gave a ratio (BC2T S8E library peptide) of 1, a ratio (BC2T H9D library peptide) of 0.5 and a ratio (BC2T H9E library peptide) of 0.6. For the same binder, the ratio [11] was 1, the ratio [12] was 1.1 and the ratio [13] was 0.6. The ratio [14] was 0.5.
